Assay results reported in patent US20250289897A1 (Eli Lilly, published 2025).

Key:
[1] = molecular target: T1, human FcγRIIb (CD32b) extracellular domain (human, UniProt P31994 43-217); test: SPR at 25 C, antibody captured on Protein A chip
T1 construct: extracellular domain
T1 sequence (looked up): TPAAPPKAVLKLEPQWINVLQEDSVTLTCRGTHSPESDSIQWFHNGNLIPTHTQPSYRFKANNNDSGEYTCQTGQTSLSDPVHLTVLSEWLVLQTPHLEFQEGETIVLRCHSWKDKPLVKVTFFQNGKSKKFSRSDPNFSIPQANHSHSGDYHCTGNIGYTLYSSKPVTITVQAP
Experimental: (§1) Briefly, the surfaces of all 4 flow cells were activated by injecting a 1:1 mixture of EDC/NHS for 7 minutes at 10 μL/minute. […] Un-reacted sites were blocked with a 7-minute injection of ethanolamine at 10 μL/minute. Injections of 2×10 μL of glycine pH 1.5 were used to remove any noncovalently associated protein.
(§2) For FcγRI binding, antibodies were diluted to 2.5 g/mL in running buffer (1x HBS-EP+, Teknova P/N H8022), and approximately 150 RU of each antibody was captured in flow cells 2 through 4 (RUcaptured). FC1 was the reference flow cell, therefore, no antibody was captured in FC1. […] Duplicate injections of each concentration were injected over all FCs at 40 μL/minute for 120 seconds followed by a 1200 second dissociation phase. Regeneration was performed by injecting 15 μL of 10 mM glycine pH 1.5 at 30 μL/minute over all FCs. Reference-subtracted data was collected as FC2-FC1, FC3-FC1, and FC4-FC1. The measurements were obtained at 25° C. The affinity (KD) was calculated using either steady state equilibrium analysis with the Scrubber 2 Biacore® Evaluation Software or a “1:1 (Langmuir) binding” model in BIA Evaluation.
(§3) For FcγRIIa, FcγRIIb, and FcγRIIIa binding, antibodies were diluted to 5 μg/mL in running buffer, and approximately 500 RU is captured in flow cells 2 through 4 (RUcaptured). FC1 is the reference flow cell. […] Duplicate injections of each concentration were injected over all FCs at 40 L/minute for 60 seconds followed by a 120 second dissociation phase. Regeneration was performed by injecting 15μL of 10 mM glycine pH 1.5 at 30 μL/minute over all FCs.

[2] = molecular target: T2, human FcγRIIIA_158V (CD16a) extracellular domain (human, UniProt P08637 17-208); test: SPR at 25 C, antibody captured on Protein A chip
T2 construct: extracellular domain
T2 sequence (P08637 17-208 F176V): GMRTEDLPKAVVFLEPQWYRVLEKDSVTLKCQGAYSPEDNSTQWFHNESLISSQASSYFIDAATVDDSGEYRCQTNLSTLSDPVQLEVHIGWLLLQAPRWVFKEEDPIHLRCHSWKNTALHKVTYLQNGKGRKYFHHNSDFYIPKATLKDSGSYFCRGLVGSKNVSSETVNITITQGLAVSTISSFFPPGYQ
Experimental: as §1, §2, §3

[3] = molecular target: T3, human FcγRIIA_131H (CD32a) extracellular domain (human, UniProt P12318 34-217); test: SPR at 25 C, antibody captured on Protein A chip
T3 construct: extracellular domain
T3 sequence (looked up): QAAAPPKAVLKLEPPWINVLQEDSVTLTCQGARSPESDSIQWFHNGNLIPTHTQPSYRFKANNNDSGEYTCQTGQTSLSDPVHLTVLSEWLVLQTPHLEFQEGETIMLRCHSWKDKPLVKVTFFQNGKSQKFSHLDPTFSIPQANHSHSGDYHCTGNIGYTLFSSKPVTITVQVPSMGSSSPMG
Experimental: as §1, §2, §3

[4] = molecular target: T4, human FcγRI (CD64) extracellular domain (human, UniProt P12314 16-292); test: SPR at 25 C, antibody captured on Protein A chip
T4 construct: extracellular domain; also called FcγRI ECD
T4 sequence (P12314 16-292): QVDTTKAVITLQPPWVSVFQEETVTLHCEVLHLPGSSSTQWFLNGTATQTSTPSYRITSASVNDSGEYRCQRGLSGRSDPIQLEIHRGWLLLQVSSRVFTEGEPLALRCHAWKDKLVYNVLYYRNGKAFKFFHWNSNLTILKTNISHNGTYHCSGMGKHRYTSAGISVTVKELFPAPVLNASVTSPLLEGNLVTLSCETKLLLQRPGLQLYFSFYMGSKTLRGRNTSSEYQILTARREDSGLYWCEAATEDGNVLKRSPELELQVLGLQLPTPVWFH
Experimental: as §1, §2, §3

[5] = molecular target: T5, human FcγRIIIA_158F (CD16a) extracellular domain (human, UniProt P08637 17-208); test: SPR at 25 C, antibody captured on Protein A chip
T5 construct: extracellular domain
T5 sequence (P08637 17-208): as the sequence (P08637 17-208 F176V) above, with V160F counted along it
Experimental: as §1, §2, §3

[6] = molecular target: T6, human FcγRIIA_131R (CD32a) extracellular domain (human, UniProt P12318 34-217); test: SPR at 25 C, antibody captured on Protein A chip
T6 construct: extracellular domain
T6 sequence (looked up): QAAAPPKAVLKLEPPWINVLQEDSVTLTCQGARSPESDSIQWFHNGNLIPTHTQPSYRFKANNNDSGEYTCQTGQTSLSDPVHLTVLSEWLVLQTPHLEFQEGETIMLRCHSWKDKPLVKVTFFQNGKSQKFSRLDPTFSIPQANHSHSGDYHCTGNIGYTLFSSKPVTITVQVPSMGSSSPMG
Experimental: as §1, §2, §3

[7] = molecular target: T7, CYNO LEPR-ECD-His (cynomolgus monkey, UniProt Q9MYL0 22-837 (rhesus entry)); test: SPR (Biacore T200), antibody captured on Protein A/G chip, His-tagged LEPR-ECD as analyte, 1:1 fit; mean n=4, SD 1.7E-8
T7 construct: also called cynomolgus monkey LEPR
T7 sequence: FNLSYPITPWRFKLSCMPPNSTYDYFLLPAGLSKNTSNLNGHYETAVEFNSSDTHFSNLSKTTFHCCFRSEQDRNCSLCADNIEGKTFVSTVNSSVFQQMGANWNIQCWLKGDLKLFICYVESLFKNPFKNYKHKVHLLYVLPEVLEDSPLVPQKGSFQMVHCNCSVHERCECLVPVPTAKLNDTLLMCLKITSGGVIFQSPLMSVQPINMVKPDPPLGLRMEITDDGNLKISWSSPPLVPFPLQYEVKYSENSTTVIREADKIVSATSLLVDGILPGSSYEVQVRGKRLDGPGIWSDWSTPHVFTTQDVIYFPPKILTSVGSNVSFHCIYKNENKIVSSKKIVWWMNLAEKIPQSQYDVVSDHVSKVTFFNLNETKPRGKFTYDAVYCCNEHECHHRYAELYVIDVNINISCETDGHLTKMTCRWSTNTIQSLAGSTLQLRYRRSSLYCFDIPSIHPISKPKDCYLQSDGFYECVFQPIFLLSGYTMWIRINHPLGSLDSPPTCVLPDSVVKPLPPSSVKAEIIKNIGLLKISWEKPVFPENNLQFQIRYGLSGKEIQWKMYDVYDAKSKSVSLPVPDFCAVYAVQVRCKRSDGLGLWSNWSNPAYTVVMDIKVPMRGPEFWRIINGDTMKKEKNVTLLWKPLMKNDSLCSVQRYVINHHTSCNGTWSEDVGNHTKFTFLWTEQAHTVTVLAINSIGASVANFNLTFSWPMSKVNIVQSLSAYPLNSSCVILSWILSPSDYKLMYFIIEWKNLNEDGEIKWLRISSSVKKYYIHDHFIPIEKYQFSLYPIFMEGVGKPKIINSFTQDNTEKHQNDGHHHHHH
Experimental: (§4) His-tagged ECDs were expressed and purified for each species and used for affinity analysis. A Protein A/G chip (Xantec, Cat #PAGHC200M) was utilized in this experiment with HBS-EP +0.01% BSA as running buffer. Antibodies were diluted to 1 μg/mL in running buffer and captured to a single flow cell on the chip surface. Each species of LEPR-ECD was diluted to 1000 nM in running buffer followed by 2-fold serial dilution. Each ligand concentration was injected over all flow cells at 100 L/min for 150 seconds followed by a 600 second dissociation phase. Regeneration was performed by injecting 10 mM glycine pH1.5 for 30 seconds at 10 μL/min. Data were analyzed in Biacore T200 Evaluation Software 3.1 by flow-cell 1 reference subtraction along with 0 nM blank subtraction. Data were fit globally using a “1:1 Binding” binding model to determine the on-rate (kₐ) and off-rate (kd) for each ligand. The affinity (KD) was calculated from the binding kinetics according to the relationship KD=kₐ/kd. Data reported as mean±standard deviation of experimental replicates.

[8] = molecular target: T8, human LEPR-ECD-His (human, UniProt P48357 22-839); test: SPR (Biacore T200), antibody captured on Protein A/G chip, His-tagged LEPR-ECD as analyte, 1:1 fit; mean n=3, SD 7.1E-9
T8 sequence: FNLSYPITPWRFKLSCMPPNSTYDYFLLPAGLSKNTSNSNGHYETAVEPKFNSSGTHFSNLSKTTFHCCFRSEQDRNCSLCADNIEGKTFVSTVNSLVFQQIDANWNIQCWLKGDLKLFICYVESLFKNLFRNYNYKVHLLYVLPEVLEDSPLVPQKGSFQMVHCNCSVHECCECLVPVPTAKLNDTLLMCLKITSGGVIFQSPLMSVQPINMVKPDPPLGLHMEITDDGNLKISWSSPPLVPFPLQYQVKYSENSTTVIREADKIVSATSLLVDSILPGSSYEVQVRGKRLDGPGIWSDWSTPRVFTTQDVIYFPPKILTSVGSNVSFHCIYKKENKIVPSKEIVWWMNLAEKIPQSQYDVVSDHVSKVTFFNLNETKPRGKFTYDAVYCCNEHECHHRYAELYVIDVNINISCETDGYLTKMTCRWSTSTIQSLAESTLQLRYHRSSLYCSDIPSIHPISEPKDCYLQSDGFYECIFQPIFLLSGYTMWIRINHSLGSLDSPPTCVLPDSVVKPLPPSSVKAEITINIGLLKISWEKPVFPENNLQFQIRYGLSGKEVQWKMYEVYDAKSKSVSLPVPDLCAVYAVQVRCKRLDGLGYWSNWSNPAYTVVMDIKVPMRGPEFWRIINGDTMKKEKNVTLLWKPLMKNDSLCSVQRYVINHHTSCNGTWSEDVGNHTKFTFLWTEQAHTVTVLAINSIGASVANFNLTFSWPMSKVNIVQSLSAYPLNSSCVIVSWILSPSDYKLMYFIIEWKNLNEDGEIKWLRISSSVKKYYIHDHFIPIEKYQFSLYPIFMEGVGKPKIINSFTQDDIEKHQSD
Experimental: as §4

[9] = molecular target: T7, CYNO LEPR-ECD-His; test: SPR (Biacore T200), antibody captured on Protein A/G chip, His-tagged LEPR-ECD as analyte, 1:1 fit; mean n=4, SD 2.6E-8
Experimental: as §4

B1: Antibody A (antibody, human IgG1, kappa, L234A L235A)
heavy: EVQLLESGGGLVQPGGSLRLSCAASGFTFSSFAMSWVRQAPGKGLEWVSAISGSGGSTYSADSVRGRFTISRDNSKNTLYLQMNSLRAEDTAVYYCAKDQGDWDFLFDYWGQGTLVTVSSASTKGPSVFPLAPSSKSTSGGTAALGCLVKDYFPEPVTVSWNSGALTSGVHTFPAVLQSSGLYSLSSVVTVPSSSLGTQTYICNVNHKPSNTKVDKRVEPKSCDKTHTCPPCPAPEAAGGPSVFLFPPKPKDTLYITREPEVTCVVVSVSHEDPEVKFNWYVDGVEVHNAKTKPREEQYNSTYRVVSVLTVLHQDWLNGKEYKCKVSNKALPAPIEKTISKAKGQPREPQVYTLPPSREEMTKNQVSLTCLVKGFYPSDIAVEWESNGQPENNYKTTPPVLDSDGSFFLYSKLTVDKSRWQQGNVFSCSVMHEALHNHYTQKSLSLSPGK
light: DIQMTQSPSFLSASVGDRVTITCRASQGISSSLAWYQQKPGKAPKLLIYTASTLQSGVPSRFSGSGSGTEFTLTISSLQPEDFATYYCQQLIYYPFTFGQGTKVEIKRTVAAPSVFIFPPSDEQLKSGTASVVCLLNNFYPREAKVQWKVDNALQSGNSQESVTEQDSKDSTYSLSSTLTLSKADYEKHKVYACEVTHQGLSSPVTKSFNRGEC
notes: IgG1 mAb
binding result [1]: no binding (tested: receptor ECD tested up to 10 µM) | binding result [2]: no binding (tested: receptor ECD tested up to 10 µM) | binding result [3]: no binding (tested: receptor ECD tested up to 10 µM) | binding result [4]: no binding (tested: FcγRI ECD tested up to 200 nM) | binding result [5]: no binding (tested: receptor ECD tested up to 10 µM) | binding result [6]: no binding (tested: receptor ECD tested up to 10 µM)

B2: Antibody B (antibody, human IgG1, kappa, L234A L235A, V domains shown)
VH: EVQLLESGGGLVQPGGSLRLSCAASGFTFSSFAMSWVRQAPGKGLEWVSAISGSGGSTYSADSVRGRFTISRDNSKNTLYLQMNSLRAEDTAVYYCAKDQGDWDFLFDYWGQGTLVTVSS
VL: DIQMTQSPSFLSASVGDRVTITCRVSQGISSSLAWYQQKPGKAPKLLIYTASTLQSGVPSRFSGSGSGTEFTLTISSLQPEDFATYYCQQLNYYPFTFGQGTKVEIKR
Kd [7]: 32 nM

B3: Antibody C (antibody, human IgG1, kappa, L234A L235A, V domains shown)
VH: EVQLLESGGGLVQPGGSLRLSCAASGFTFSSFAMSWVRQAPGKGLEWVSAISGSGGSTYSADSVRGRFTISRDNSKNTLYLQMNSLRAEDTAVYYCAKDQGDWDFLFDYWGQGTLVTVSS
VL: DIQMTQSPSFLSASVGDRVTITCRASQGISSSLAWYQQKPGKAPKLLIYTASTLQSGVPSRFSGSGSGTEFTLTISSLQPEDFATYYCQQLNYYPFSFGQGTKVEIKR
Kd [8]: 26 nM | Kd [9]: 47 nM
